The target in the experiment is FGFR1c and βKlotho receptor complex on membrane vesicles of CHO cells overexpressing both (human) (UniProt Q86Z14). Description: cryo-EM and cryo-ET of a gold-nanoparticle-labelled ligand on membrane vesicles; membrane preparations (~5 mg/ml) incubated with AuE38C-FGF21 (0.03 mg/ml) on ice for 30 min, washed with 1X PBS three times, plunge-frozen; AuNPs and AuNP pairs counted in tomograms.
Sequence of UniProt Q86Z14 (Q86Z14 whole entry, chain 1 of 2): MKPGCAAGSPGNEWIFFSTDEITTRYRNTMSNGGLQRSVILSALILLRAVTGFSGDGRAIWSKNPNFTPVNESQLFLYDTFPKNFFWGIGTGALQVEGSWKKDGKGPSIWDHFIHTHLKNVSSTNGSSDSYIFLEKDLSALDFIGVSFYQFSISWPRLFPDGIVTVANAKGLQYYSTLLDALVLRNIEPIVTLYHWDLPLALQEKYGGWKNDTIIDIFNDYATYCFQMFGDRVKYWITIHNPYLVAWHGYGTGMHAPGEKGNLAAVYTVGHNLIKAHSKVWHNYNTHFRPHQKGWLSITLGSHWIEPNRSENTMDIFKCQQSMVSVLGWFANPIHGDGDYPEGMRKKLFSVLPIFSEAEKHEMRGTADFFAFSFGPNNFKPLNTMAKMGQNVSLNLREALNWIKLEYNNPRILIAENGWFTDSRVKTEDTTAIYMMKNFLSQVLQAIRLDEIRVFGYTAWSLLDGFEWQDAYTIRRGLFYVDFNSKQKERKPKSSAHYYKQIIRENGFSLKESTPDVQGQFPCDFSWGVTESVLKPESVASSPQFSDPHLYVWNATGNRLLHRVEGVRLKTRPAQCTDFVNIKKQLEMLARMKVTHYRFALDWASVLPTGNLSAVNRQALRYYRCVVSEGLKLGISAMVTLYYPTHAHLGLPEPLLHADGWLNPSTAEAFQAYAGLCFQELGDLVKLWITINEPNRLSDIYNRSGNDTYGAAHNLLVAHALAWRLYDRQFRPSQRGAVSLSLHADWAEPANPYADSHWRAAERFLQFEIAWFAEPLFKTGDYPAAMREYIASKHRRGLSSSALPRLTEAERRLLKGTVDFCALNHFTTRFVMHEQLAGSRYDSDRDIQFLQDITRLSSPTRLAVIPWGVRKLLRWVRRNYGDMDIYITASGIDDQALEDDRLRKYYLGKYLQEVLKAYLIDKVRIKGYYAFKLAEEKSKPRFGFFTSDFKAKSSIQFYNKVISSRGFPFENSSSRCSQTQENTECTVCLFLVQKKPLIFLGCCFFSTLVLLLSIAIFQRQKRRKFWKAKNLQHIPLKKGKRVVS
Sequence of UniProt Q86Z14 (P11362 22-822, chain 2 of 2, further chain): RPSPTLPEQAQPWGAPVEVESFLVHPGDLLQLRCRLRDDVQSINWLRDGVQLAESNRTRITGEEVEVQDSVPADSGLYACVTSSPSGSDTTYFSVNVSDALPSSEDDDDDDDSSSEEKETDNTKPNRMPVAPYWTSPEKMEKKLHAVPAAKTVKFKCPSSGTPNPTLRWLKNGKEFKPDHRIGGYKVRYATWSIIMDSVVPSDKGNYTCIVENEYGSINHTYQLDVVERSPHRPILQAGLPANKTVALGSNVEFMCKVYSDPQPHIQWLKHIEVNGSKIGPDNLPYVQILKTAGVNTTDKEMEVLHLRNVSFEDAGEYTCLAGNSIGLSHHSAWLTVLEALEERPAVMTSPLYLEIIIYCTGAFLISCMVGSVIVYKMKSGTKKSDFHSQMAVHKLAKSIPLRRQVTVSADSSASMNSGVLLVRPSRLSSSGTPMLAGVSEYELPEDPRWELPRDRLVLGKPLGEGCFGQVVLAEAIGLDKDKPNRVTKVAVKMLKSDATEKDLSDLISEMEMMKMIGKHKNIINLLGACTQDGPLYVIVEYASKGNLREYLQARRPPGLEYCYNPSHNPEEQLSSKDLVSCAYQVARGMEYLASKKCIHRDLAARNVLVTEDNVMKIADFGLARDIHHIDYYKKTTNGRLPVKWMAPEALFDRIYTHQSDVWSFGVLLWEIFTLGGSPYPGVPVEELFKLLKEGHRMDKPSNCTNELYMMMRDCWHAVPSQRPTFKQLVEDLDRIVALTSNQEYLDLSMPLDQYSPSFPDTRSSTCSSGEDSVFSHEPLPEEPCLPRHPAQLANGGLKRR

As for “AuNP-FGF21 (E38C-FGF21 conjugated with a 144-gold atom nanoparticle) (ligand)”, the percent of AuNPs in true pairs was found to be 85% and the stoichiometry N (copies of FGF21 in the receptor complex) turned out to be 2.

For the origin of these results see article PMC6349402.
